# ± gives the uncertainty stated by the source.
# Experiment: protein stability index of a GFP-peptide fusion (yeast GPS) (PSI 1-4); higher = more stable; sorted into four equal gates, so the index is relative within each strain
# How it was run: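 Peptides tiling yeast proteins in 17-residue segments were fused downstream of GFP, with Cherry expressed from the same plasmid. As a pooled library in yeast, mid-log cultures grown in leucine-free medium were sorted into four equal gates by GFP/Cherry fluorescence ratio. Gate plasmids were PCR-amplified and Illumina-sequenced, and barcodes linked reads to strains. Each peptide received a protein stability index equal to the sum of each gate's read frequency times its gate number.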
Sequence,protein stability index (doa10∆),protein stability index (pdr5∆),protein stability index (san1∆),protein stability index (ubr1∆)
KENDTVMNTKLLQEGGS [ESC2],3.16 ± 0.12,3.2 ± 0.092,3.04 ± 0.078,3.21 ± 0.076
LMRELLKMMKLIVDTHV [PRP8],1.9 ± 0.083,1.34 ± 0.06,2.29 ± 0.088,1.39 ± 0.06
GAPGANARMPGMPNMPG [SRP54],3.15 ± 0.083,3.2 ± 0.28,2.92 ± 0.12,2.9 ± 0.11
NKSSVRPTGGANMATVP [MED6],2.69 ± 0.063,2.79 ± 0.074,2.71 ± 0.1,2.83 ± 0.057
KIQQQQPGYADLEHKED [QCR6],2.51 ± 0.062,2.71 ± 0.071,2.69 ± 0.069,2.69 ± 0.044
AMNDACYEKVLESINEG [BRR2],3.15 ± 0.12,2.82 ± 0.17,2.91 ± 0.095,3.37 ± 0.2
FDVNTLCLMTWKEVMFD [CDC53],2.61 ± 0.096,2.59 ± 0.065,2.81 ± 0.11,2.85 ± 0.068
TKDPDEQQLFEIFAFGN [CSN9],3.18 ± 0.13,3.09 ± 0.088,3.17 ± 0.052,2.83 ± 0.053
KIENSVQIGAEIILDFL [CSI1],2.73 ± 0.24,2.83 ± 0.16,2.38 ± 0.12,2.61 ± 0.11
AAEGLCKLFLADVFTDD [YCG1],3.25 ± 0.061,3.26 ± 0.061,3.14 ± 0.043,3.14 ± 0.039
NDWKLETERLISQSQLG [SIN4],3.42 ± 0.096,3.11 ± 0.14,3.3 ± 0.068,3.53 ± 0.19
MLMPKEDRNKIHQYLFQ [RPS10A],2.27 ± 0.057,2.58 ± 0.057,2.49 ± 0.079,2.71 ± 0.047
QPIFVAHTAGRYANKRF [RPS5],1.55 ± 0.076,2.03 ± 0.072,1.61 ± 0.12,1.78 ± 0.069
DDVLQTIITDCAFLLTK [YJL039C/NUP192],1.76 ± 0.057,2.08 ± 0.062,1.79 ± 0.098,2.34 ± 0.047
LRPRKDSKDGTTLNIKV [SMB1],,,3.18 ± 0.12,
ANLVNKESDLLEETRTT [BRN1],3.06 ± 0.18,3.51 ± 0.17,3.31 ± 0.098,3.26 ± 0.077
PGGYFIVNGTEKVILVQ [RET1],1.63 ± 0.12,1.67 ± 0.1,1.28 ± 0.13,2.48 ± 0.13
ERKSKTYVITKNGKIYL [RET1],2.76 ± 0.051,2.54 ± 0.057,2.5 ± 0.059,2.47 ± 0.035
HIVYSLLVNPDIDLETY [YML103C/NUP188],2.52 ± 0.049,2.34 ± 0.042,2.52 ± 0.062,2.45 ± 0.035
TNAPLRTLNIQPEVAVK [YIL149C/MLP2],2.08 ± 0.051,2.03 ± 0.048,1.65 ± 0.096,2.23 ± 0.042
FSSKNEWRKSAIANTLL [PRP8],2.99 ± 0.056,2.79 ± 0.045,2.94 ± 0.053,2.72 ± 0.045
GAEVDEARINELLSSLE [RPP2B],3.16 ± 0.11,3.5 ± 0.11,3.22 ± 0.077,3.21 ± 0.1
DINPPLVFILAVVGNNM [RRP42],1.84 ± 0.083,1.78 ± 0.058,1.96 ± 0.082,1.52 ± 0.046
LIQKGYLQRGDDGESYA [CDC53],3.68 ± 0.15,2.68 ± 0.1,3.34 ± 0.065,3.12 ± 0.066
AKLPGHKSLIRSISWAP [YGL100W/SEH1],2.74 ± 0.07,2.3 ± 0.058,2.2 ± 0.11,2.54 ± 0.055
HQPITSEQKMKEDADLK [SIR4],2.88 ± 0.058,3.36 ± 0.1,3.42 ± 0.063,3.26 ± 0.073
MSETLPRSDDLEATWNF [CDC53],3.05 ± 0.17,3.39 ± 0.15,,2.81 ± 0.15

Sequence,protein stability index (doa10∆),protein stability index (pdr5∆),protein stability index (san1∆),protein stability index (ubr1∆)
VIKTLTVDVSSPTENGV [RPL22B],2.3 ± 0.14,2.55 ± 0.089,2.32 ± 0.13,2.83 ± 0.064
RAHRIGQKNEVRILRLI [SNF2],2.26 ± 0.048,1.79 ± 0.051,2.03 ± 0.058,2.23 ± 0.044
AATVHTATSSSIILSDK [SSN2],2.19 ± 0.043,2.29 ± 0.032,2.02 ± 0.053,2.39 ± 0.041
GWPKLQLGPQTPAFNTA [ECM29],1.43 ± 0.21,1.48 ± 0.16,1.42 ± 0.17,1.68 ± 0.2
GLIPADATFAGHSLGEY [FAS1],3.01 ± 0.087,3.21 ± 0.06,3.08 ± 0.11,3.03 ± 0.059
PAWFNNPRKRAIPNSII [YMR153W/NUP53],2.62 ± 0.084,2.94 ± 0.083,3.21 ± 0.079,3.25 ± 0.084
KRELKRAQEEVKRIQSV [RPT3],3.23 ± 0.096,3.39 ± 0.14,2.91 ± 0.096,3.38 ± 0.083
GYDPIVSTRAIDLLWKG [PRP28],2.12 ± 0.18,2.03 ± 0.091,1.47 ± 0.11,2.6 ± 0.079
NNYNSRIQLMNDFTTKL [MED1],2.89 ± 0.075,2.85 ± 0.075,2.98 ± 0.058,3.08 ± 0.059
GRPRGRPKKVKLEGSEN [SNF2],3.41 ± 0.19,3.21 ± 0.21,3.27 ± 0.098,3.65 ± 0.17
VTDDDRLWLKKVMEEEE [POP8],1.43 ± 0.066,1.89 ± 0.07,1.57 ± 0.089,2.07 ± 0.07
GSHLSETEFPPFREFLQ [ECM29],3.12 ± 0.063,3.11 ± 0.071,3.09 ± 0.041,2.87 ± 0.058
YDIVKFLTVSKLWAEII [GRR1],2.05 ± 0.041,2.59 ± 0.038,2.18 ± 0.048,2.44 ± 0.032
KRNKLLTIFDSVDESAR [YJL039C/NUP192],2.26 ± 0.07,2.37 ± 0.072,2.32 ± 0.061,2.36 ± 0.066
VIANPKGEMKGSAITGP [RPL23A],3.19 ± 0.13,3.22 ± 0.2,2.64 ± 0.14,2.91 ± 0.23
IIDVGTHHTDIIPIVDY [ARP9],2.41 ± 0.088,2.48 ± 0.056,2.5 ± 0.056,2.59 ± 0.036
VGQLNKVVDQLFEKASV [RPN6],2.5 ± 0.063,2.51 ± 0.15,2.77 ± 0.076,2.5 ± 0.058
VAIGLNGKIWVKCEELS [RRP40],1.58 ± 0.2,2.25 ± 0.24,2.94 ± 0.16,1.73 ± 0.1
KEDAKATMENIQKGKFT [SRP54],3.07 ± 0.055,3.29 ± 0.057,3.09 ± 0.062,3.08 ± 0.051
KICRGRMNTIITHPGKM [SIR4],3.36 ± 0.28,,3.23 ± 0.16,
RAPKVIHGQDFQFFPKE [ISW2],2.56 ± 0.068,2.47 ± 0.069,3.17 ± 0.065,2.83 ± 0.052
YTDFENTFQKTVEPVYQ [FAS1],2.15 ± 0.099,2.44 ± 0.1,2.03 ± 0.15,2.73 ± 0.084
DPDNTSFSDENSDDFFM [ESC2],2.31 ± 0.13,2.39 ± 0.11,2.54 ± 0.09,1.5 ± 0.088
ISLLALPHSPLWELALA [YML031W/NDC1],1.35 ± 0.086,1.49 ± 0.061,1.34 ± 0.11,1.7 ± 0.042
KRELKQLLEKAPIPIRE [BRR2],1.94 ± 0.05,2.22 ± 0.053,1.99 ± 0.13,1.91 ± 0.061
PIQSKVFHAAFEGDSNM [BRR2],2.91 ± 0.055,3.02 ± 0.051,2.92 ± 0.063,2.9 ± 0.032
FTSHTRLRQGAAKLRTL [RPL2A],2.03 ± 0.059,1.68 ± 0.044,2.1 ± 0.073,1.95 ± 0.039

# Reference: the supplement of paper PMC9732359
